Laboratory results as given in paper PMC11141937 (JCI Insight, 2024).

How the values were obtained:
[1] = molecular target: SARS-CoV-2 Delta S protein ectodomain (SARS-CoV-2 Delta (B.1.617.2), strain); assay: BLI; settings: both partners purified
[2] = molecular target: SARS-CoV-2 Omicron BA.2 S protein ectodomain (SARS-CoV-2 Omicron BA.2, strain); assay: BLI; settings: both partners purified
[3] = molecular target: SARS-CoV-2 Delta S protein on S-293T cells (SARS-CoV-2 Delta (B.1.617.2), strain); assay: flow cytometry on cells; settings: one partner purified
[4] = molecular target: SARS-CoV-2 Omicron BA.1 S protein on S-293T cells (SARS-CoV-2 Omicron BA.1, strain); assay: flow cytometry on cells; settings: one partner purified
[5] = molecular target: SARS-CoV-2 Omicron BA.2 S protein on S-293T cells (SARS-CoV-2 Omicron BA.2, strain); assay: flow cytometry on cells; settings: one partner purified
[6] = molecular target: SARS-CoV-2 Omicron BA.4/5 S protein on S-293T cells (SARS-CoV-2 Omicron BA.4/5, strain); assay: flow cytometry on cells; settings: one partner purified

Measured: binding result

B1: O5C2 mAb (antibody, V domains shown)
VH: EVQLVESGGGLIQPGGSLRLSCAASGIIVSRNYMSWVRQAPGKGLEWVSILYAGGSSFYAEPVQGRFTVSRDNSKNTLFLEMNSLRVEDTAVYYCARDLQWGIDIWGQGAMVTVSS
VL: DIQMTQTPPSLSASVGDRVSISCRASQSTGSWLAWYQQKPGKAPKLLIYKTSSLESGVPSRFSGSGSGTEFTLTISSLQPDDVATYYCQHYDTYSSTFGQGTKVEIK
binds: all assays above
